Experiment [1] has as its target T1, human IL6 (Peprotech catalogue number 200-06) (human, UniProt P05231 30-212).
T1 construct: Bought protein
Briefly: Biacore, GH6L IgG1 captured on GMCSF immobilised on a CM5 chip (GMCSF bound at the same time), concentration series of IL6 injected; five sensorgrams with fits [contd.]. An excerpt: (§1) The antibody was expressed in human IgG1 format using standard mammalian expression vectors bearing GH6L heavy and light chain and signal peptide cDNAs, by transient transfection of HEK293-6E cells. Expressed IgG was affinity-purified using protein A resin. For Biacore™ analysis, GMCSF (Peprotech catalogue number 300-03) or an anti-light chain capture antibody was immobilized onto a CM5 chip using amine-coupling, resulting in 4000 RU and 12000 RU immobilized GMCSF and anti-light chain capture antibody, respectively.
For orientation: Surface plasmon resonance follows binding to a sensor surface in real time, without labels.

Experiment [2] has as its target T1, human IL6 (Peprotech catalogue number …). Briefly: Biacore, GH6L IgG1 captured on anti-light chain antibody immobilised on a CM5 chip (no GMCSF), concentration series of IL6 injected; five sensorgrams with fits [contd.].
Text: as §1

The target of experiment [3] is T2, human VEGF (Peprotech catalogue number 100-20) (human, UniProt P15692-4 27-191).
T2 construct: Bought protein
The experiment can be described thus: SPR (Biacore), Fab captured by anti-light chain antibody on CM5 chip, VEGF 0-450 nM in flow. How it is done: Antibody libraries were selected against human VEGF (Peprotech catalogue number 100-20) and human IL6 (Peprotech catalogue number 200-06). Of the isolated parental antibody clones, IL6P and VEGFP were combined into the bi-specific antibody clone VH6L. […] To assess the affinities of parental and bi-specific antibodies, Biacore™ analysis was performed in order to analyze the binding behaviour of IL6P, VH6L and VEGFP. For this, an anti-light chain capture antibody was immobilized onto a CM5 chip using amine-coupling, resulting in 12000 RU. Fab fragments were captured to a level of 400-500 RU and a concentration series of IL6 and VEGF, ranging from 0 to 450 nM, was passed over the chip. As depicted in FIG. 7, clone IL6P binds to IL6, but not to VEGF, clone VEGFP binds to VEGF, but not to IL6, and the combined clone VH6L binds to both IL6 and VEGF.

Three molecules from patent US9944719 (HOFFMAN LA ROCHE, dated 2018) can be followed below.

Numbering of substitutions follows the chain as printed.

The koff is a measure of how fast the partners let go of each other. What is called kon is a measure of how fast the partners come together. Usually Kd stands for the constant that tells how readily two partners part at equilibrium. A higher Kd goes with a looser complex.

T2 sequence (P15692 other isoform, or with tags, fused parts or gaps limits assumed): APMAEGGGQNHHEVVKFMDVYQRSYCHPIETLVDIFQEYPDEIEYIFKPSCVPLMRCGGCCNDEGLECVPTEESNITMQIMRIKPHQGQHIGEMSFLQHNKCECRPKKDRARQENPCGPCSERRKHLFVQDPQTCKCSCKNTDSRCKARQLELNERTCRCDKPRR

B1: GH6L (bispecific antibody, V domains shown)
VH: WVQLVESGGGLVQPGGSLRLSCAAKGALFSTYAMSWIRQAPGKGLEWIGQISGSGGSTVYNYNVLGRFTISRDNSKNTLYLQMNSLRAEDTAVYYCARDSGYFDIWGQGTLVTVSS
VL: ATQRTQSPSSLSASVGDRVTITCRALWHISSYLAWYQQKPGKAPKLLIYAASWLYWDVPSRFSGSGSGTDFTLTISSLQPEDFATYYCQQYSGLPYTFGQGTKVEIKR
notes: Specific for human GMCSF and human IL6, with two paratopes in one VH-VL pair; also called bi-specific antibody clone GH6L
For the molecule B1, in experiment [1], the koff stood at 0.00045 s⁻¹ and the kon was 24000 M⁻¹ s⁻¹. Further, in experiment [2], the koff was 0.0017 s⁻¹ and the kon came to 57000 M⁻¹ s⁻¹.

B2: VH6L (Fab, V domains shown)
VH: B1 VH with W1Y, V2Y, K25D, A27F, T31G, S100T, I105H
VL: B1 VL with A1N, T2I, R4K, W53H, Y55H, W56Y, D57G
notes: Bi-specific clone (VEGF and IL6, two paratopes in one VH-VL pair) combined from IL6P and VEGFP; Tested as a Fab fragment; also called bi-specific antibody clone VH6L; combined clone VH6L
Molecule B2 displayed a Kd in experiment [3] of 7.8 nM.

B3: VEGFP (Fab, V domains shown)
VH: B1 VH with W1Y, V2Y, K25D, A27F, T31G, V59Y, Y62D, S100T, I105H
VL: B1 VL with A1D, R4M, L26S, W27Q, H28S, W53H, Y55H, W56Y, D57G, G93S
notes: Parental anti-VEGF clone, tested as a Fab fragment captured by an anti-light chain antibody in Biacore; the constant parts are human CH1 and CK; also called parental antibody VEGFP; clone VEGFP
In turn, B3 gave a Kd in experiment [3] of 11 nM.
